Laboratory results: PMC4317691, “Stability of glucagon-like peptide 1 and glucagon in human plasma” (Endocrine Connections, 2015)

What was measured:
[1] = human plasma, no ice
Procedure: GLP-1 and glucagon (0 and 40 pmol/l) were added to the portions, whereafter they were stored at either room temperature or on ice for 1 h and measured (as described below plasma samples after extraction and buffer samples directly).

[2] = Procedure: The aliquots (N=6–8) of spiked plasma were then: i) immediately extracted with ethanol (final concentration 70%, for this treatment we used N=21); ii) subjected to one freeze–thaw cycle (placed at −20 °C for ∼1 h followed by thawing in an ice bath) and extracted (using 70% ethanol, final concentration) immediately upon thawing; iii) subjected to two freeze–thaw cycles and extracted immediately upon second thawing; iv) subjected to three freeze–thaw cycles and extracted immediately upon third thawing; v) kept on ice for 1 h and extracted immediately after; vi) kept on ice for 3 h and extracted immediately after; vii) kept without ice for 1 h at RT and extracted immediately after; viii) kept without ice for 3 h and extracted immediately after.
Later, an additional plasma pool was prepared of fresh plasma from some (n=5) of the healthy subjects contributing to the first pool, spiked with glucagon (0 and 40 pmol/l, final concentration), and aliquoted. Thereafter, the valiquots were kept on ice for up to 24 h. These aliquots (N=6–8 for each time point) were extracted after 1, 3, 6, 12, and 24 h, respectively, measured (see below) and compared with a set of aliquots extracted immediately after spiking with peptide. […] After extraction, peptide concentrations were analyzed using the assays described below. […]

[3] = Stability of glucagon in frozen assay buffer with 6% HSA; assay type: physicochemical; details: 40 pmol/l, -20 °C for up to 72 h
[4] = remark: listed apart in the source
Procedure: From each of the original spiked plasma portions, eight to ten aliquots were distributed into low-adsorption Nunc tubes (VWR-Bie&Berntsen A/S, Herlev, Denmark). One set of samples (N=8–10) was extracted and analyzed immediately to serve as controls. The remaining eight sets were divided into two and stored at −20 °C or −80 °C. Samples (N=8–10) from each set were analyzed after 1, 3, 6, and 12 months of storage. In addition, seven portions of the new plasma pool as well as assay buffer (to which was added 6% human serum albumin (HSA) to mimick plasma), spiked with 0 and 40 pmol/l of glucagon (N=5 for each set of spiked samples), were assayed (plasma after extraction) after freezing (at −20 °C) for 0 (i.e., they were measured immediately without freezing), 1, 3, 6, 12, 24, and 72 h of storage at −20 °C.
The recovery in percent was calculated as the measured concentration in the individual, spiked plasma sample minus the concentration in the corresponding non-spiked plasma sample divided by the theoretical spiked concentration of peptide and multiplied by 100. For the presentation of data, we normalized the recovery after each treatment by adjusting for the recovery of the samples extracted immediately, set as 100% (Table 1). Differences between treatments were analyzed by one-way ANOVA for repeated measurement with post hoc Bonferroni correction. […]

| Compound | Recovery of intact GLP-1 on addition of a DPP4 inhibitor [1] | Glucagon recovery at RT for 3 h, N-terminal-specific assay [2] | Glucagon stability at RT for 1 h [2] | Recovery of glucagon in buffer after freezing [3] | Loss of glucagon recovery after 1 month of frozen storage [4] |
| --- | --- | --- | --- | --- | --- |
| CC[C@H](C)[C@H](NC(=O)[C@H](Cc1ccccc1)NC(=O)[C@H](CCC(=O)O)NC(=O)[C@H](CCCCN)NC(=O)[C@H](C)NC(=O)[C@H](C)NC(=O)[C@H](CCC(N)=O)NC(=O)CNC(=O)[C@H](CCC(=O)O)NC(=O)[C@H](CC(C)C)NC(=O)[C@H](Cc1ccc(O)cc1)NC(=O)[C@H](CO)NC(=O)[C@H](CO)NC(=O)[C@@H](NC(=O)[C@H](CC(=O)O)NC(=O)[C@H](CO)NC(=O)[C@@H](NC(=O)[C@H](Cc1ccccc1)NC(=O)[C@@H](NC(=O)CNC(=O)[C@H](CCC(=O)O)NC(=O)[C@H](C)NC(=O)[C@@H](N)Cc1c[nH]cn1)[C@@H](C)O)[C@@H](C)O)C(C)C)C(=O)N[C@@H](C)C(=O)N[C@@H](Cc1c[nH]c2ccccc12)C(=O)N[C@@H](CC(C)C)C(=O)N[C@H](C(=O)N[C@@H](CCCCN)C(=O)NCC(=O)N[C@@H](CCCNC(=N)N)C(N)=O)C(C)C [GLP-1 7–36NH2] | increased |  |  |  |  |
| glucagon 1–29 |  | significant (P=0.02) reduction | relatively stable | unaffected | about 50% |
